Results taken from PMC3102714, “OsSpo11-4, a Rice Homologue of the Archaeal TopVIA Protein, Mediates Double-Strand DNA Cleavage and Interacts with OsTopVIB” (PLoS ONE, 2011).

Biological target: T1, GST-OsTopVIB fusion protein (Oryza sativa L. ssp. japonica, UniProt Q6H442 1-696)
T1 construct: OsTopVIB, Oryza sativa L. ssp. japonica; ORF amplified with primers P17 and P18, cloned BamHI/BglII into pESP-2; fusion about 103 kD; also called OsTopVIB-GST fusion; GST-TopVIB
T1 sequence (looked up): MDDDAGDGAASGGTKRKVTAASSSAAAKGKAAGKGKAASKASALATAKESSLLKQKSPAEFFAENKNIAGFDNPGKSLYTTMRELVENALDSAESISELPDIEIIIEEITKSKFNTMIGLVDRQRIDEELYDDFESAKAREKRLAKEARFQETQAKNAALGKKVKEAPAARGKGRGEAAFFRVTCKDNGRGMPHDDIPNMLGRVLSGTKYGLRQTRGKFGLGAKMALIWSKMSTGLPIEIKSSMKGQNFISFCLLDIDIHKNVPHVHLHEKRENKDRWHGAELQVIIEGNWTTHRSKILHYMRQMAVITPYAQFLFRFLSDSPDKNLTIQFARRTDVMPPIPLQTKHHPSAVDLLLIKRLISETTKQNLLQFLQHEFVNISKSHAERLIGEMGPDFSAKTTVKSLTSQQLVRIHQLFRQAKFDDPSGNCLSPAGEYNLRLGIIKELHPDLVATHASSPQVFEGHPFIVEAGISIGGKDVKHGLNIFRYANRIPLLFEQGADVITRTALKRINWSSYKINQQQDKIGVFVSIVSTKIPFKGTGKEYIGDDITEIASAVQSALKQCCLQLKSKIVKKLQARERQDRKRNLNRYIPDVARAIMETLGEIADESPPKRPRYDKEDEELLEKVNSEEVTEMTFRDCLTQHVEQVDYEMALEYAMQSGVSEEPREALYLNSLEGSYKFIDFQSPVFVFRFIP
Assay: pull-down; GST-OsTopVIB preabsorbed to Glutathione Sepharose resin; purified pET-OsSpo11-4 precleared with GST resin; 0.5% NP-40 lysis buffer (20 mM Tris-HCl pH 8.0, 200 mM NaCl, 1 mM EDTA), 4°C, 6 h; western blot with antibody against pET-OsSpo11-4
Conditions: both partners purified

binding result: binds
B1: pET-OsSpo11-4 fusion protein (natural protein, Oryza sativa L. ssp. japonica, UniProt Q2QM00 1-487, looked up)
chain: MDDSTDDDSYHPRKHYAYDRQVSSSRWRTSREYIRGPGPETHTTESAQDGQDPPAGVYSYGYFSGSGNDPQVQGHFVPEIQKYNPYVIFKGEQLPVPIWELPEEKVQDFHDRYFIAKDKSRVEARKTLNRLLEGNINTIERGHGYKFNIPKYTDNMEFNEEVKVSLAKAGKTISRSFCNANQREVASRTGYTIDLIERTLGAGLNISKRTVLYTNKDLFGDQSKSDQAINDICALTNIRRGSLGIIAAEKGIVVGNIFLELTNGKSISCSIGVQIPHRLDQIKDVCVEIGSRNIEYILVVEKHTMLNYLLEMDYHTNNNCIILTGCGMPTLQTRDFLRFLKQRTGLPVFGLCDPDPEGISILATYARGSCNSAYDNFNISVPSICWVGLSSSDMIKLNLSETNYSRLSREDKTMLKNLWQDDLSDVWKRRIEEMISFDKKASFEAIHSLGFDYFATNLLPDMINKVREGYVQVQEKKEPQDTEASED
notes: OsSpo11-4, Oryza sativa L. ssp. japonica, predicted protein of 487 amino acids; full-length ORF amplified with primers P5 and P6, cloned into EcoRI/XhoI of pET-32a(+); fusion about 72 kD; Forward primer P5 lacks the ATG GAT that primer P15 has, so the insert may lack the first two codons; also called pET-Spo11-4
